Experimental data from PMC4802922, “Conserved motif VIII of murine DNA methyltransferase Dnmt3a is essential for methylation activity”.

What was measured:
Dnmt3a-CD R200K = Dnmt3a-CD R200K (Mus musculus, UniProt O88508 608-908, R786K); test: fluorescence polarization; Kd1; 0.1 mM AdoHcy; Fluorescence polarization: 10 nM duplex, 0.1 mM AdoHcy, Dnmt3a reaction buffer (composition not given), 25 °C; enzyme up to 600-800 nM; settings: protein: recombinant; tags: His6; chain copies: 2; label: 5'-FAM on strand 1 (hexamethylene linker); blunt
Sequence of Dnmt3a-CD R200K (O88508 608-908 R786K): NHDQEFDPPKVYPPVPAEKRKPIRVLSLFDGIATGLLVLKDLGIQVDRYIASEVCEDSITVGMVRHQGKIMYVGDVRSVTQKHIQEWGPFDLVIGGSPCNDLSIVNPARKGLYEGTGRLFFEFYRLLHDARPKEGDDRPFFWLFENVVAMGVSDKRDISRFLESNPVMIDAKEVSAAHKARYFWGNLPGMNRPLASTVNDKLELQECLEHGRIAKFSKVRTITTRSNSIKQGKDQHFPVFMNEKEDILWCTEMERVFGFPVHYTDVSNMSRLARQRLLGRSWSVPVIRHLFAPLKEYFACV

Dnmt3a-CD R200E = Dnmt3a-CD R200E (Mus musculus, UniProt O88508 608-908, R786E); test: as above; settings: protein: recombinant; tags: His6; chain copies: 2; label: 5'-FAM on strand 1 (hexamethylene linker); blunt
Sequence of Dnmt3a-CD R200E (O88508 608-908 R786E): as the sequence (O88508 608-908 R786K) above, with K179E counted along it

Dnmt3a-CD R200A = Dnmt3a-CD R200A (Mus musculus, UniProt O88508 608-908, R786A); test: as above; settings: protein: recombinant; tags: His6; chain copies: 2; label: 5'-FAM on strand 1 (hexamethylene linker); blunt
Sequence of Dnmt3a-CD R200A (O88508 608-908 R786A): as the sequence (O88508 608-908 R786K) above, with K179A counted along it

Dnmt3a-CD wt = Dnmt3a-CD wt (Mus musculus, UniProt O88508 608-908); test: fluorescence polarization; Kd1 (first complex); 0.1 mM AdoHcy; Fluorescence polarization: 10 nM duplex, 0.1 mM AdoHcy, Dnmt3a reaction buffer (composition not given), 25 °C; enzyme up to 600-800 nM; settings: protein: recombinant; tags: His6 (N-terminal in Methods, C-terminal in Results); chain copies: 2; label: 5'-FAM on strand 1 (hexamethylene linker); blunt
Sequence of Dnmt3a-CD wt (O88508 608-908): as the sequence (O88508 608-908 R786K) above, with K179R counted along it

B1: fGCGC/CGCG (dsDNA)
DNA 1: CTGAATACTACTTGCGCTCTCTAACCTGAT
DNA 2: ATCAGGTTAGAGAGCGCAAGTAGTATTCAG
- Kd (Dnmt3a-CD R200K): 55 ± 14 nM
- Kd (Dnmt3a-CD R200E): 159 ± 37 nM
- Kd (Dnmt3a-CD R200A): 79 ± 17 nM
- Kd (Dnmt3a-CD wt): 73 ± 17 nM
